First the molecules themselves.
B1: library; numbered along this chain (parent)
chain: MRKPRAAVGSGHRKQAASQEGRQKHAKNNSQAKPSACDGLARQPEEVVLQASVSSYHLFRDVAEVTAFRGSLLSWYDQEKRDLPWRRRAEDEMDLDRRAYAVWVSEVMLQQTQVATVINYYTGWMQKWPTLQDLASASLEEVNQLWAGLGYYSRGRRLQEGARKVVEELGGHMPRTAETLQQLLPGVGRYTAGAIASIAFGQATGVVDGNVARVLCRVRAIGADPSSTLVSQQLWGLAQQLVDPARPGDFNQAAMELGATVCTPQRPLCSQCPVESLCRARQRVEQEQLLASGSLSGSPDVEECAPNTGQCHLCLPPSEPWDQTLGVVNFPRKASRKPPREESSATCVLEQPGALGAQILLVQRPNSGLLAGLWEFPSVTWEPSEQLQRKALLQELQRWAGPLPATHLRHLGEVVHTFSHIKLTYQVYGLALEGQTPVTTVPPGARWLTQEEFHTAAVSTAMKKVFRVYQGQQPGTCMGSKRSQVSSPCSRKKPRMGQQVLDNFFRSHISTDAHSLNSAAQ

12 variants from the supplement of paper PMC11908140 can be followed below.
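Also: cells sorted at 72 h after reporter transfection.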

The data set covers variants of B1. The experiment in a line: 8OG:A repair function score (normalized; synonymous = 0, nonsense = -1) (normalized log-likelihood score); higher = more repair activity (WT-like). The conditions noted are these: with 8OG:A DNA repair reporter (GFP) in HEK-293 MUTYH KO cells. The essentials:
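GFP+ (repair) and GFP− bins of viable mCherry+ cells were collected at 72 h from MUTYH knockout HEK-293 cells bearing lentiviral MUTYH cDNA NNN codon-scan libraries in 10 pg/ml doxycycline, co-transfected with an 8OG:A GFP repair reporter and mCherry. Tile amplicons were sequenced, and per-tile Rosace fitness scores were normalized to a repair function score anchored on synonymous and nonsense distributions. Synonymous medians were set to 0 and nonsense to -1, with variants under 300 counts per million at the start removed.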
Consider MRKPRAAVGSGHRKQAASQEGRQKHAKNNSQAKPSACDGLARQPEEVVLQASVSSYHLFRDVAEVTAFRGSLLSWYDQEKRDLPWRRRAEDEMDLDRRAYAVWVSEVMLQQTQVATVINYYTGWMQKWPTLQDLASASLEEVNQLWAGLGYYSRGRRLQEGARKVVEELGGHMPRTAETLQQLLPGVGRYTAGAIASIAFGQATGVVDGNVARVLCRVRAIGADPSSTLVSQQLWGLAQQLVDPARPGDFNQAAMELGATVCTPQRPLCSQCPVESLCRARQRVEQEQLLASGSLSGSPDVEECAPNTGQCHLCLPPSEPWDQTLGVVNFPRKASRKPPREESSATCVLEQPGALGAQILLVQRPNSGLLAGLWEFPSVTWEPSEQLQRKALLQELQRWAGPLPATHLRHLGEVVHTFSHIKLTYQVYGLALEGQTPVTTVPPGARWLTQEEFHTAAVSTAPKKVFRVYQGQQPGTCMGSKRSQVSSPCSRKKPRMGQQVLDNFFRSHISTDAHSLNSAAQ [M462P], for which the “8OG:A repair function score” value is -0.578.

With MRKPRAAVGSGHRKQAASQEGRQKHAKNNSQAKPSACDGLARQPEEVVLQASVSSYHLFRDVAEVTAFRGSLLSWYDQEKRDLPWRRRAEDEMDLDRRAYAVWVSEVMLQQTQVATVINYYTGWMQKWPTLQDLASASLEEVNQLWAGLGYYSRGRRLQEGARKVVEELGGHMPRTAETLQQLLPGVGRYTAGAIASIAFGQATGVVDGNVARVLCRVRAIGADPSSTLVSQQLWGLAQQLVDPARPGDFNQAAMELGATVCTPQRPLCSQCPVESLCRARQRVEQEQLLASGSLSGSPDVEECAPNTGQCHLCLPPSEPWDQTLGVVNFPRKASRKPPREESSATCVLEQPGALGAQILLVQRPNSGLLAGLWEFPSVTWEPSEQLQRKALLQELQRWAGPLPATHLRHLGEVVHTFSHIKLTYQVYGLALEGQTPVTTVPPGARWLTQEEFHTAAVSTANKKVFRVYQGQQPGTCMGSKRSQVSSPCSRKKPRMGQQVLDNFFRSHISTDAHSLNSAAQ [M462N], the “8OG:A repair function score” value is -0.31.

As to MRKPRAAVGSGHRKQAASQEGRQKHAKNNSQAKPSACDGLARQPEEVVLQASVSSYHLFRDVAEVTAFRGSLLSWYDQEKRDLPWRRRAEDEMDLDRRAYAVWVSEVMLQQTQVATVINYYTGWMQKWPTLQDLASASLEEVNQLWAGLGYYSRGRRLQEGARKVVEELGGHMPRTAETLQQLLPGVGRYTAGAIASIAFGQATGVVDGNVARVLCRVRAIGADPSSTLVSQQLWGLAQQLVDPARPGDFNQAAMELGATVCTPQRPLCSQCPVESLCRARQRVEQEQLLASGSLSGSPDVEECAPNTGQCHLCLPPSEPWDQTLGVVNFPRKASRKPPREESSATCVLEQPGALGAQILLVQRPNSGLLAGLWEFPSVTWEPSEQLQRKALLQELQRWAGPLPATHLRHLGEVVHTFSHIKLTYQVYGLALEGQTPVTTVPPGARWLTQEEFHTAAVSTAVKKVFRVYQGQQPGTCMGSKRSQVSSPCSRKKPRMGQQVLDNFFRSHISTDAHSLNSAAQ [M462V], the “8OG:A repair function score” value was -0.097. The value for MRKPRAAVGSGHRKQAASQEGRQKHAKNNSQAKPSACDGLARQPEEVVLQASVSSYHLFRDVAEVTAFRGSLLSWYDQEKRDLPWRRRAEDEMDLDRRAYAVWVSEVMLQQTQVATVINYYTGWMQKWPTLQDLASASLEEVNQLWAGLGYYSRGRRLQEGARKVVEELGGHMPRTAETLQQLLPGVGRYTAGAIASIAFGQATGVVDGNVARVLCRVRAIGADPSSTLVSQQLWGLAQQLVDPARPGDFNQAAMELGATVCTPQRPLCSQCPVESLCRARQRVEQEQLLASGSLSGSPDVEECAPNTGQCHLCLPPSEPWDQTLGVVNFPRKASRKPPREESSATCVLEQPGALGAQILLVQRPNSGLLAGLWEFPSVTWEPSEQLQRKALLQELQRWAGPLPATHLRHLGEVVHTFSHIKLTYQVYGLALEGQTPVTTVPPGARWLTQEEFHTAAVSTATKKVFRVYQGQQPGTCMGSKRSQVSSPCSRKKPRMGQQVLDNFFRSHISTDAHSLNSAAQ [M462T] was 0.0162; that for MRKPRAAVGSGHRKQAASQEGRQKHAKNNSQAKPSACDGLARQPEEVVLQASVSSYHLFRDVAEVTAFRGSLLSWYDQEKRDLPWRRRAEDEMDLDRRAYAVWVSEVMLQQTQVATVINYYTGWMQKWPTLQDLASASLEEVNQLWAGLGYYSRGRRLQEGARKVVEELGGHMPRTAETLQQLLPGVGRYTAGAIASIAFGQATGVVDGNVARVLCRVRAIGADPSSTLVSQQLWGLAQQLVDPARPGDFNQAAMELGATVCTPQRPLCSQCPVESLCRARQRVEQEQLLASGSLSGSPDVEECAPNTGQCHLCLPPSEPWDQTLGVVNFPRKASRKPPREESSATCVLEQPGALGAQILLVQRPNSGLLAGLWEFPSVTWEPSEQLQRKALLQELQRWAGPLPATHLRHLGEVVHTFSHIKLTYQVYGLALEGQTPVTTVPPGARWLTQEEFHTAAVSTARKKVFRVYQGQQPGTCMGSKRSQVSSPCSRKKPRMGQQVLDNFFRSHISTDAHSLNSAAQ [M462R] was -1.12; that for MRKPRAAVGSGHRKQAASQEGRQKHAKNNSQAKPSACDGLARQPEEVVLQASVSSYHLFRDVAEVTAFRGSLLSWYDQEKRDLPWRRRAEDEMDLDRRAYAVWVSEVMLQQTQVATVINYYTGWMQKWPTLQDLASASLEEVNQLWAGLGYYSRGRRLQEGARKVVEELGGHMPRTAETLQQLLPGVGRYTAGAIASIAFGQATGVVDGNVARVLCRVRAIGADPSSTLVSQQLWGLAQQLVDPARPGDFNQAAMELGATVCTPQRPLCSQCPVESLCRARQRVEQEQLLASGSLSGSPDVEECAPNTGQCHLCLPPSEPWDQTLGVVNFPRKASRKPPREESSATCVLEQPGALGAQILLVQRPNSGLLAGLWEFPSVTWEPSEQLQRKALLQELQRWAGPLPATHLRHLGEVVHTFSHIKLTYQVYGLALEGQTPVTTVPPGARWLTQEEFHTAAVSTASKKVFRVYQGQQPGTCMGSKRSQVSSPCSRKKPRMGQQVLDNFFRSHISTDAHSLNSAAQ [M462S] was -0.0759. As for MRKPRAAVGSGHRKQAASQEGRQKHAKNNSQAKPSACDGLARQPEEVVLQASVSSYHLFRDVAEVTAFRGSLLSWYDQEKRDLPWRRRAEDEMDLDRRAYAVWVSEVMLQQTQVATVINYYTGWMQKWPTLQDLASASLEEVNQLWAGLGYYSRGRRLQEGARKVVEELGGHMPRTAETLQQLLPGVGRYTAGAIASIAFGQATGVVDGNVARVLCRVRAIGADPSSTLVSQQLWGLAQQLVDPARPGDFNQAAMELGATVCTPQRPLCSQCPVESLCRARQRVEQEQLLASGSLSGSPDVEECAPNTGQCHLCLPPSEPWDQTLGVVNFPRKASRKPPREESSATCVLEQPGALGAQILLVQRPNSGLLAGLWEFPSVTWEPSEQLQRKALLQELQRWAGPLPATHLRHLGEVVHTFSHIKLTYQVYGLALEGQTPVTTVPPGARWLTQEEFHTAAVSTAYKKVFRVYQGQQPGTCMGSKRSQVSSPCSRKKPRMGQQVLDNFFRSHISTDAHSLNSAAQ [M462Y], the figure is -0.369; as for MRKPRAAVGSGHRKQAASQEGRQKHAKNNSQAKPSACDGLARQPEEVVLQASVSSYHLFRDVAEVTAFRGSLLSWYDQEKRDLPWRRRAEDEMDLDRRAYAVWVSEVMLQQTQVATVINYYTGWMQKWPTLQDLASASLEEVNQLWAGLGYYSRGRRLQEGARKVVEELGGHMPRTAETLQQLLPGVGRYTAGAIASIAFGQATGVVDGNVARVLCRVRAIGADPSSTLVSQQLWGLAQQLVDPARPGDFNQAAMELGATVCTPQRPLCSQCPVESLCRARQRVEQEQLLASGSLSGSPDVEECAPNTGQCHLCLPPSEPWDQTLGVVNFPRKASRKPPREESSATCVLEQPGALGAQILLVQRPNSGLLAGLWEFPSVTWEPSEQLQRKALLQELQRWAGPLPATHLRHLGEVVHTFSHIKLTYQVYGLALEGQTPVTTVPPGARWLTQEEFHTAAVSTAQKKVFRVYQGQQPGTCMGSKRSQVSSPCSRKKPRMGQQVLDNFFRSHISTDAHSLNSAAQ [M462Q], -0.198; as for MRKPRAAVGSGHRKQAASQEGRQKHAKNNSQAKPSACDGLARQPEEVVLQASVSSYHLFRDVAEVTAFRGSLLSWYDQEKRDLPWRRRAEDEMDLDRRAYAVWVSEVMLQQTQVATVINYYTGWMQKWPTLQDLASASLEEVNQLWAGLGYYSRGRRLQEGARKVVEELGGHMPRTAETLQQLLPGVGRYTAGAIASIAFGQATGVVDGNVARVLCRVRAIGADPSSTLVSQQLWGLAQQLVDPARPGDFNQAAMELGATVCTPQRPLCSQCPVESLCRARQRVEQEQLLASGSLSGSPDVEECAPNTGQCHLCLPPSEPWDQTLGVVNFPRKASRKPPREESSATCVLEQPGALGAQILLVQRPNSGLLAGLWEFPSVTWEPSEQLQRKALLQELQRWAGPLPATHLRHLGEVVHTFSHIKLTYQVYGLALEGQTPVTTVPPGARWLTQEEFHTAAVSTAWKKVFRVYQGQQPGTCMGSKRSQVSSPCSRKKPRMGQQVLDNFFRSHISTDAHSLNSAAQ [M462W], -0.592. For MRKPRAAVGSGHRKQAASQEGRQKHAKNNSQAKPSACDGLARQPEEVVLQASVSSYHLFRDVAEVTAFRGSLLSWYDQEKRDLPWRRRAEDEMDLDRRAYAVWVSEVMLQQTQVATVINYYTGWMQKWPTLQDLASASLEEVNQLWAGLGYYSRGRRLQEGARKVVEELGGHMPRTAETLQQLLPGVGRYTAGAIASIAFGQATGVVDGNVARVLCRVRAIGADPSSTLVSQQLWGLAQQLVDPARPGDFNQAAMELGATVCTPQRPLCSQCPVESLCRARQRVEQEQLLASGSLSGSPDVEECAPNTGQCHLCLPPSEPWDQTLGVVNFPRKASRKPPREESSATCVLEQPGALGAQILLVQRPNSGLLAGLWEFPSVTWEPSEQLQRKALLQELQRWAGPLPATHLRHLGEVVHTFSHIKLTYQVYGLALEGQTPVTTVPPGARWLTQEEFHTAAVSTAMCKVFRVYQGQQPGTCMGSKRSQVSSPCSRKKPRMGQQVLDNFFRSHISTDAHSLNSAAQ [K463C], the “8OG:A repair function score” value was -0.196. The value for MRKPRAAVGSGHRKQAASQEGRQKHAKNNSQAKPSACDGLARQPEEVVLQASVSSYHLFRDVAEVTAFRGSLLSWYDQEKRDLPWRRRAEDEMDLDRRAYAVWVSEVMLQQTQVATVINYYTGWMQKWPTLQDLASASLEEVNQLWAGLGYYSRGRRLQEGARKVVEELGGHMPRTAETLQQLLPGVGRYTAGAIASIAFGQATGVVDGNVARVLCRVRAIGADPSSTLVSQQLWGLAQQLVDPARPGDFNQAAMELGATVCTPQRPLCSQCPVESLCRARQRVEQEQLLASGSLSGSPDVEECAPNTGQCHLCLPPSEPWDQTLGVVNFPRKASRKPPREESSATCVLEQPGALGAQILLVQRPNSGLLAGLWEFPSVTWEPSEQLQRKALLQELQRWAGPLPATHLRHLGEVVHTFSHIKLTYQVYGLALEGQTPVTTVPPGARWLTQEEFHTAAVSTAMAKVFRVYQGQQPGTCMGSKRSQVSSPCSRKKPRMGQQVLDNFFRSHISTDAHSLNSAAQ [K463A] was -0.157; that for MRKPRAAVGSGHRKQAASQEGRQKHAKNNSQAKPSACDGLARQPEEVVLQASVSSYHLFRDVAEVTAFRGSLLSWYDQEKRDLPWRRRAEDEMDLDRRAYAVWVSEVMLQQTQVATVINYYTGWMQKWPTLQDLASASLEEVNQLWAGLGYYSRGRRLQEGARKVVEELGGHMPRTAETLQQLLPGVGRYTAGAIASIAFGQATGVVDGNVARVLCRVRAIGADPSSTLVSQQLWGLAQQLVDPARPGDFNQAAMELGATVCTPQRPLCSQCPVESLCRARQRVEQEQLLASGSLSGSPDVEECAPNTGQCHLCLPPSEPWDQTLGVVNFPRKASRKPPREESSATCVLEQPGALGAQILLVQRPNSGLLAGLWEFPSVTWEPSEQLQRKALLQELQRWAGPLPATHLRHLGEVVHTFSHIKLTYQVYGLALEGQTPVTTVPPGARWLTQEEFHTAAVSTAMDKVFRVYQGQQPGTCMGSKRSQVSSPCSRKKPRMGQQVLDNFFRSHISTDAHSLNSAAQ [K463D] was -0.287.
